According to US20040001835A1, “Prevention or treatment of cancer using integrin alphavbeta3 antagonists in combination with other agents” (MedImmune, Inc., priority 2002, published 2004):

Target: T1, mouse Integrin αVβ3 (Mus musculus, UniProt O54890)
T1 sequence (O54890 26-787): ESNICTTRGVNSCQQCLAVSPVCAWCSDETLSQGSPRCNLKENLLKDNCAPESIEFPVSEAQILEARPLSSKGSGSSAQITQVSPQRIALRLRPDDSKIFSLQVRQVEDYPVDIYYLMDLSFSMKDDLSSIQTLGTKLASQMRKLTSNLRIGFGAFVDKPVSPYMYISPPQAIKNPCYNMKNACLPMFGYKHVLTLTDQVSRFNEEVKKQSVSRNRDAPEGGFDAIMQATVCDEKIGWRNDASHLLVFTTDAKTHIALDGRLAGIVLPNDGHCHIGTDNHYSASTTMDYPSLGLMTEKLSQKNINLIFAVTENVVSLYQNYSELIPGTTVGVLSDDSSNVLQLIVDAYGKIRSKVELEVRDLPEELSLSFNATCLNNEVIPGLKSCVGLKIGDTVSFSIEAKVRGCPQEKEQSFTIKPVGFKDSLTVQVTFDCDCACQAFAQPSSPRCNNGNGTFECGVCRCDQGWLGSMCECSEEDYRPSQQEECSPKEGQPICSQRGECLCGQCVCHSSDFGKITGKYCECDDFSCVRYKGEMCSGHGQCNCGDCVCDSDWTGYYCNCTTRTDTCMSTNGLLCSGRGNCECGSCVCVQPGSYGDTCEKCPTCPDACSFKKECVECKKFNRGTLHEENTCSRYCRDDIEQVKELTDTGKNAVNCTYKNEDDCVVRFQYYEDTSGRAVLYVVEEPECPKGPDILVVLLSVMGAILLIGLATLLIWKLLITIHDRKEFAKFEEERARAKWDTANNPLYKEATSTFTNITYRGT
T1 sequence (P43406 31-885 partner limits assumed): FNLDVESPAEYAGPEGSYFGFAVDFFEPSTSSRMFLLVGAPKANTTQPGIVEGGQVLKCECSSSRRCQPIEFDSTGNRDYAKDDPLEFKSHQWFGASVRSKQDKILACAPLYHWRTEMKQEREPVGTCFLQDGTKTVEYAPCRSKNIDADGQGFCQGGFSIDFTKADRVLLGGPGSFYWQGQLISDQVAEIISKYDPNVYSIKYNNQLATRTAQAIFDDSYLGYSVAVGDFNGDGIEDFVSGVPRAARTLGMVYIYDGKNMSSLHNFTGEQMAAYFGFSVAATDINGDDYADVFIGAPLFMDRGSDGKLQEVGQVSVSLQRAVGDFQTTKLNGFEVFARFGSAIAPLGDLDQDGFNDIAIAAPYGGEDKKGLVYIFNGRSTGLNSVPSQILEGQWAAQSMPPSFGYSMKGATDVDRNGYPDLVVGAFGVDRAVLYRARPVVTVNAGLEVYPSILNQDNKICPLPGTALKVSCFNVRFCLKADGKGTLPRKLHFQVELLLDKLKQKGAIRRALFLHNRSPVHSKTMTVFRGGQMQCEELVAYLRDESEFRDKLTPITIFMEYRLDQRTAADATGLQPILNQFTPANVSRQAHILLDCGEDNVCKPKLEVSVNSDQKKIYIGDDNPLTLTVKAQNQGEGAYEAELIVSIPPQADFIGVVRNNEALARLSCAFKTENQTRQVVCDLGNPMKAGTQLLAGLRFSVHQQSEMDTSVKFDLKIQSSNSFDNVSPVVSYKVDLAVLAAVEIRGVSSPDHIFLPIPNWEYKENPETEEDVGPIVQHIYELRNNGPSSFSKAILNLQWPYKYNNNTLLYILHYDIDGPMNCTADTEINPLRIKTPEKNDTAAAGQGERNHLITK
T1 sequence (P43406 887-1044 partner limits assumed): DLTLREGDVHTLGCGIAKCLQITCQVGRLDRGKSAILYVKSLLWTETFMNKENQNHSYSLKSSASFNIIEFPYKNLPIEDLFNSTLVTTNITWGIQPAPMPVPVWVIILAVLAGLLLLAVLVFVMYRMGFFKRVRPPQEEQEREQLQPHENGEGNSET
Assay: Binding to mouse Integrin αVβ3

binding to mouse Integrin αVβ3: do not bind
B1: Vitaxin®: humanized blocking monoclonal antibody that binds Integrin αVβ3 (MEDI-522, MedImmune); humanized and optimized version of LM609 (antibody, chains of the INN, looked up, V domains shown)
VH: QVQLVESGGGVVQPGRSLRLSCAASGFTFSSYDMSWVRQAPGKGLEWVAKVSSGGGSTYYLDTVQGRFTISRDNSKNTLYLQMNSLRAEDTAVYYCARHLHGSFASWGQGTTVTVSS
VL: EIVLTQSPATLSLSPGERATLSCQASQSISNFLHWYQQRPGQAPRLLIRYRSQSISGIPARFSGSGSGTDFTLTISSLEPEDFAVYYCQQSGSWPLTFGGGTKVEIK
